According to article PMC4673829, “Chemical basis for the recognition of trimethyllysine by epigenetic reader proteins” (Nature Communications, 2015):
Ends that are not written are not given here. Me3 = trimethyllysine (Kme3)

B1: 10-mer H3K4me3 histone peptide (peptide)
peptide: ARTK(Me3)QTARKS-OH
notes: histone H3, residues 1-10, with Kme3 at the fourth position; Peptides appear as TFA salts; also called H3(1-10)K4me3; source: synthetic peptide (solid-phase synthesis, Fmoc chemistry, preparative HPLC)
B2: 10-mer H3C4me3 histone peptide (peptide)
chain: ARTXQTARKS
modifications: Cme3 (neutral carba analogue of trimethyllysine, tert-butyl in place of trimethylammonium) at position 4; carboxylic acid at the C terminus
B3: 10-mer H3G4 histone peptide (peptide)
peptide: ARTGQTARKS-OH
notes: source: synthetic peptide (solid-phase synthesis, Fmoc chemistry, preparative HPLC)

How the values were obtained:
Conditions in all cases: both partners purified
[1] = molecular target: T1, TAF3 PHD domain (for ITC); assay: ITC; 350–600 μM H3K4me3 or H3C4me3 peptide titrated to 25–40 μM protein (JMJD2A–H3C4me3: 3 mM peptide to 200 μM JMJD2A); 19 injections; Microcal Auto-iTC200; one set of sites model; 5–7 repeats
T1 chain: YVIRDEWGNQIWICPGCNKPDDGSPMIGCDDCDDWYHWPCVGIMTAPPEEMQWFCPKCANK

BPTF PHD zinc finger = molecular target: T2, BPTF PHD zinc finger; assay: as above
T2 chain: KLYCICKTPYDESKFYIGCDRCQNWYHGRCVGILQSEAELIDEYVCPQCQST

[2] = molecular target: T3, JARID1A PHD3 domain (for ITC); assay: as above
T3 construct: JARID1A (KDM5A), PHD3 domain; cleavage of the tag is told only for JMJD2A, SGF29 and TAF3; also called PHD zinc finger of JARID1A; source: E. coli Rosetta BL21 DE3 pLysS, purified (Ni-NTA or glutathione sepharose beads, Superdex 75)

JMJD2A tudor domains = molecular target: T4, JMJD2A tudor domains; assay: as above
T4 construct: JMJD2A (KDM4A), tudor domains; source: E. coli Rosetta BL21 DE3 pLysS, purified (Ni-NTA, TEV protease, Superdex 75)
T4 sequence (O75164 whole entry, species assumed, looked up): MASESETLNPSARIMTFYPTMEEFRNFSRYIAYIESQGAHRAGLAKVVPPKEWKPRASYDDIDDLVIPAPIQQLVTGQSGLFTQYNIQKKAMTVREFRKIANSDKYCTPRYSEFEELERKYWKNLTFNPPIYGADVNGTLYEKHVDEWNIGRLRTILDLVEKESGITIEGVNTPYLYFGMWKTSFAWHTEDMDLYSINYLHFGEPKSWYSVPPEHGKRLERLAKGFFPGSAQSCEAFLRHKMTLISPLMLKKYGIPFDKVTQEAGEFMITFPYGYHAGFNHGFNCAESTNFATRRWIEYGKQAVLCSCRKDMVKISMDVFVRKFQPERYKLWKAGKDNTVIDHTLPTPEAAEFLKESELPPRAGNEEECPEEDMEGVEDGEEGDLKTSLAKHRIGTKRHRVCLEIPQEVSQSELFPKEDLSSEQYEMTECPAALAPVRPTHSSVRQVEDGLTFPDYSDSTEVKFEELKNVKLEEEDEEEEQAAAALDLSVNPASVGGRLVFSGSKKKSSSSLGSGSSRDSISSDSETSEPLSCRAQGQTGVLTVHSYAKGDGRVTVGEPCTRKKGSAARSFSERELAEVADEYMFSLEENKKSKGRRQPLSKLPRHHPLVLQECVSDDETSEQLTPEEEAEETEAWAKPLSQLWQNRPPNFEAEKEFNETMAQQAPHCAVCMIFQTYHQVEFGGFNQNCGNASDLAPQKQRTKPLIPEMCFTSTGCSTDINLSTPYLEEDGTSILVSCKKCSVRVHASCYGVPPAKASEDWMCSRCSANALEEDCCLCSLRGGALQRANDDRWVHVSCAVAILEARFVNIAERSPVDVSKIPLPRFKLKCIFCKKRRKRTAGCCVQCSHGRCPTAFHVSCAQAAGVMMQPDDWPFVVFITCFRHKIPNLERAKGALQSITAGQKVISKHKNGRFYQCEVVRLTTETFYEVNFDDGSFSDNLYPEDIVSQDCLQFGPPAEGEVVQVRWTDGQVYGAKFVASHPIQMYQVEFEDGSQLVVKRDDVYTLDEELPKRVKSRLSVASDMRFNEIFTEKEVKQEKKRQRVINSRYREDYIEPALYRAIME

[3] = molecular target: T5, SGF29 tandem tudor domain (for ITC); assay: as above
T5 construct: SGF29, tandem tudor domain; the crystallisation construct is residues 115-293 of human SGF29; source: E. coli Rosetta BL21 DE3 pLysS, purified (Ni-NTA, TEV protease, Superdex 75)
T5 sequence (Q96ES7 whole entry, the tested form may be a part): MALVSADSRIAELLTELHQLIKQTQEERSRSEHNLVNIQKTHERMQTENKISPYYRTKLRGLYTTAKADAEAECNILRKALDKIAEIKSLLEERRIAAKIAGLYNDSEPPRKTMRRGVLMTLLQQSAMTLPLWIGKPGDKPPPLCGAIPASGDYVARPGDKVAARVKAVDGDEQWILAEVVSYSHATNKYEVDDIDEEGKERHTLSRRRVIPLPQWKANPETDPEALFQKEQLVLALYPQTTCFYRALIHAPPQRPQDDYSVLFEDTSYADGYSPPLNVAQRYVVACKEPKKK

[4] = molecular target: T1, TAF3 PHD domain (for ITC); assay: ITC; H3G4 (5 mM) titrated to JARID1A (330 μM), H3G4 (3 mM) titrated to TAF3 (200 μM); 19 injections; Microcal Auto-iTC200; one set of sites model

| Binder | Kd [1] [nM] | dH [1] [kcal/mol] | Kd (BPTF PHD zinc finger) [nM] | dH (BPTF PHD zinc finger) [kcal/mol] | Kd [2] [nM] | dH [2] [kcal/mol] | Kd (JMJD2A tudor domains) [nM] | dH (JMJD2A tudor domains) [kcal/mol] | Kd [3] [nM] | dH [3] [kcal/mol] | Kd [4] [nM] | dH [4] [kcal/mol] |
| --- | --- | --- | --- | --- | --- | --- | --- | --- | --- | --- | --- | --- |
| B1 | 24 | -10.9 ± 0.1 | 490 | -13.1 ± 0.1 | – | – | – | – | – | – | – | – |
| B2 | 790 | -5.2 ± 0.1 | 760 | -10 ± 0.2 | 340 | -7.4 ± 0.1 | 16000 | -8.1 ± 0.1 | 1400 | -7.9 ± 0.1 | – | – |
| B3 | – | – | – | – | – | – | – | – | – | – | 36000 | -2.5 |
